# Publication PMC8584621
# Columns and labels:
# [1] = molecular target: T1, SCO3932 (GntR-like, HutC subfamily) (Streptomyces coelicolor A3(2) M145) (UniProt Q9X9T6); test: DNase I footprinting; settings: EMSA: 10 mM Tris-HCl pH 7.5, 50 mM KCl, 1 mM DTT, herring sperm DNA 100 ng, DTT/Tween20, 0.03 pmol probe in 16 uL, 20 min room temperature; footprint: same …
# T1 sequence: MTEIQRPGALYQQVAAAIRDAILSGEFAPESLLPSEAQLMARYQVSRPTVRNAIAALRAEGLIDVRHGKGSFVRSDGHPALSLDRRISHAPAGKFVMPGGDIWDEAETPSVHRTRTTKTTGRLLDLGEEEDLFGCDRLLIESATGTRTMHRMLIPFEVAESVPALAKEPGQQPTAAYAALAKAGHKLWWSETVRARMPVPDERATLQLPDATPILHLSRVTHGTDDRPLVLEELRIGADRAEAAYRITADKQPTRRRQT
# [2] = molecular target: T1, SCO3932 (GntR-like, HutC subfamily) (Streptomyces coelicolor A3(2) M145); test: DMS footprinting; settings: EMSA: 10 mM Tris-HCl pH 7.5, 50 mM KCl, 1 mM DTT, herring sperm DNA 100 ng, DTT/Tween20, 0.03 pmol probe in 16 uL, 20 min room temperature; footprint: same …
# [3] = test system: SCO3932 (GntR-like, HutC subfamily) (Streptomyces coelicolor A3(2) M145); test: EMSA; settings: EMSA: 10 mM Tris-HCl pH 7.5, 50 mM KCl, 1 mM DTT, herring sperm DNA 100 ng, DTT/Tween20, 0.03 pmol probe in 16 uL, 20 min room temperature; footprint: same …
# [4] = test system: SCO3932 (GntR-like, HutC subfamily) (Streptomyces coelicolor A3(2) M145); test: DNase I footprinting; settings: protein concentration giving protection, EMSA: 10 mM Tris-HCl pH 7.5, 50 mM KCl, 1 mM DTT, herring sperm DNA 100 ng, DTT/Tween20, 0.03 pmol probe in 16 uL, 20 min room temperature, footprint: same …
substance,measurement,setting,value
AAGGATCCGAATGGACTGCATTTCTGTGGCCTCCCTGGCCAATCCAGGACGTCCAACCTATTCGGACGTCACTTGTCCTTACGAGTGACAAGCTTGGAGCACTGTACGGCGAGAGCGCAACTACTTATGCTGACGAGTGATGTCGCGCGTGCGACGTGCCTACGACACCAGACCGGAGATGCCGAGATGACGGAGATCCAGAATTCTT (double strand) [p3932/3933 footprint probe],binding,[1],100 nM
same,binding,[2],binds
p3932/3933 EMSA probe,binding,[3],1.9 nM
p3932/3933 footprint probe,binding,"[4]; sites K1, K2",100 nM
pactII-orf4 EMSA probe,binding,[3],9.4 nM
pactII-orf4 footprint probe,binding,"[4]; sites A1, A2",800 nM
pcpkA/D EMSA probe,binding,[3],9.4 nM
pcpkD footprint probe,binding,[4]; site D,800 nM
